According to patent US20140221287A1, “Amylin Peptides and Derivatives and Uses Thereof” (ASTRAZENECA PHARMACEUTICALS LP, priority 2011, published 2014):
No end group written: not given here.

Target: amylin receptor in membranes prepared from the nucleus accumbens portion of the brain (rat) (rat)
Test: displacement of 125I-rat amylin from rat nucleus accumbens membranes

Binder | IC50 [nM]
CNTATCATQRLANFLVRSSK(mPEG40KD)NLGPVLPPTNVGSNTY-NH2 (ends and bridges not checked) [Cmpd 22, [K^21(mPEG40KD)]-Cmpd 4] | 112
KCNTATCATQRLANFLVRSSNNLGPK(Y‑shaped‑mPEG40KD)LPPTNVGSNTY-NH2 (ends and bridges not checked) [Cmpd 27, [K^26(Y-shaped-mPEG4OKD)]-Cmpd 5] | 470
mPEG40KD-CNTATCATQRLANFLVRSSNNLGPVLPPTNVGSNTY-NH2 (ends and bridges not checked) [Cmpd 20, mPEG40KD-Cmpd 2] | 78
KCNTATCATQRLANFLVRSSNNLGPK(mPEG40KD)LPPTNVGSNTY-NH2 (ends and bridges not checked) [Cmpd 23, [K^26(mPEG40KD)]-Cmpd 5] | 66
KCNTATCATQRLANFLVRSSK(mPEG40KD)NLGPVLPPTNVGSNTY-NH2 (ends and bridges not checked) [Cmpd 21, [K^21(mPEG40KD)]-Cmpd 3] | 104

The remaining lines, values ahead:

IC50 [nM] | Binder
75 | CNTATCATQRLANFLVRSSNNLGPVLPPTK(mPEG40KD)VGSNTY-NH2 (ends and bridges not checked) [Cmpd 26, [K^31(mPEG40KD)]-Cmpd 8]
86 | KCNTATCATQRLANFLVRSSNNLGPVLPPTK(mPEG40KD)VGSNTY-NH2 (ends and bridges not checked) [Cmpd 25, [K^31(mPEG40KD)]-Cmpd 7]
0.42 | CNTATCATQRLANFLVRSSNNLGPVLPPTNVGSNTY-NH2 (ends and bridges not checked) [Cmpd 2 ([desLys^1]-Cmpd 1)]
54 | CNTATCATQRLANFLVRSSNNLGPK(mPEG40KD)LPPTNVGSNTY-NH2 (ends and bridges not checked) [Cmpd 24, [K^26(mPEG40KD)]-Cmpd 6]
